From article PMC11124013, “Substrate Affinity Is Not Crucial for Therapeutic L-Asparaginases: Antileukemic Activity of Novel Bacterial Enzymes” (Molecules, 2024) come the findings set out here.

Substrate in data set [1]: NC(=O)C[C@H](N)C(=O)O
In words: Nessler ammonia assay. It counts as biochemical, Escherichia coli. The conditions noted are these: PBS pH 7.4, 37 °C. The source says: Nessler ammonia assay on EcAIII

Substrate in data set [2]: COC(=O)[C@H](Cc1ccccc1)NC(=O)C[C@H](N)C(=O)O
Description: purified protein. The conditions noted are these: PBS pH 7.4, 37 °C, 600 µM α-ketoglutarate, 190 µM NADH. It counts as biochemical, Escherichia coli.

Substrate in data set [3]: NC(=O)C[C@H](N)C(=O)O
In words: purified protein. The conditions noted are these: PBS pH 7.4, 37 °C.

Substrate in data set [4]: NC(=O)C[C@H](N)C(=O)O
Description: ITC single-injection method. It counts as biochemical, Escherichia coli. The conditions noted are these: PBS pH 7.4, 37 °C. From the text: ITC single-injection method on EcAII

Substrate in data set [5]: NC(=O)C[C@H](N)C(=O)O
Description: Nessler ammonia assay. It counts as biochemical, Rhizobium etli. The conditions noted are these: PBS pH 7.4, 37 °C. The source says:
Nessler ammonia assay on ReAV

B1: EcAIII (Escherichia coli K-12) (protein)
chain 1: GKAVIAIHGGAGAISRAQMSLQQELRYIEALSAIVETGQKMLEAGESALDVVTEAVRLLEECPLFNAGIGAVFTRDETHELDACVMDGNTLKAGAVAGVSHLRNPVLAARLVMEQSPHVMMIGEGAENFAFARGMERVSPEIFSTSLRYEQLLAARKEGATVLDHSGAPLDEKQKMG
chain 2: TVGAVALDLDGNLAAATSTGGMTNKLPGRVGDSPLVGAGCYANNASVAVSCTGTGEVFIRALAAYDIAALMDYGGLSLAEACERVVMEKLPALGGSGGLIAIDHEGNVALPFNTEGMYRAWGYAGDTPTTGIYREKGDTVATQ
notes: synthetic gene, N-terminal 6xHis-tag (pET28a or pMSCG92), expressed in E. coli BL21 Gold (DE3); precursor self-matures into alpha and beta subunits, (alpha-beta)2 heterotetramer
One may read the Km as the concentration of substrate that gives half-maximal velocity. One may read the kcat as the maximal rate divided by the concentration of active sites. The term kcat/Km denotes the turnover number divided by the Michaelis constant. As for B1, in “Nessler ammonia assay [1]”, the Km amounted to 17.66 ± 1.87 mM, the kcat was found to be 5.77 ± 0.19 s⁻¹ and the kcat/Km was 330 ± 100 M⁻¹ s⁻¹. Moreover, in the data set “purified protein [2]”, the Km is 3.57 ± 0.58 mM, the kcat came to 0.112 ± 0.007 s⁻¹ and the kcat/Km was 31 ± 7 M⁻¹ s⁻¹.

B2: ReAIV (Rhizobium etli CFN 42) (protein)
chain: MTNPVTVEVTRGLLVESRHRGAVAVVDGDGKLFFSLGDIDTAVFPRSACKAMQALPLVESGAADAYGFGDKELALACASHNGEEEHVALAASMLSRAGRNVEALECGAHWSMNQKVLIQQARSLDAPTALHNNCSGKHAGFICACCHRDIDPKGYVGYEHPLQVEIRAVMERLTGAVLGAESCGTDGCSIPTYAMPLRNLAHGFARMATGTGLEPLRAKASRRLIEACMAEPFYVAGSGRACTKLMQIAPGRIFVKTGAEGVFCAAIPEKGIGISLKSEDGATRAAEAMVAATLARFFETEETVHAALMAFAAMPMRNWNGIHVGDIRATSVFSA
Turning to B2, in “purified protein [3]”, the Km is given as 7.16 ± 2.03 mM, the kcat was found to be 9.98 s⁻¹ and the kcat/Km was found to be 1390 M⁻¹ s⁻¹.

B3: EcAII (Escherichia coli K-12) (protein)
chain: LPNITILATGGTIAGGGDSATKSNYTVGKVGVENLVNAVPQLKDIANVKGEQVVNIGSQDMNDNVWLTLAKKINTDCDKTDGFVITHGTDTMEETAYFLDLTVKCDKPVVMVGAMRPSTSMSADGPFNLYNAVVTAADKASANRGVLVVMNDTVLDGRDVTKTNTTDVATFKSVNYGPLGYIHNGKIDYQRTPARKHTSDTPFDVSKLNELPKVGIVYNYANASDLPAKALVDAGYDGIVSAGVGNGNLYKSVFDTLATAAKTGTAVVRSSRVPTGATTQDAEVDDAKYGFVASGTLNPQKARVLLQLALTQTKDPQQIQQIFNQY
notes: synthetic gene, N-terminal 6xHis-tag (pET28a or pMSCG92), expressed in E. coli BL21 (DE3) deltaansA/deltaansB; tetramer
For the protein B3, in data set [4], the Km was determined as 0.012 ± 0.002 mM, the kcat is 39 ± 1 s⁻¹ and the specificity constant (kcat/Km) worked out at 3.3e+06 ± 561000 M⁻¹ s⁻¹.

B4: ReAV (Rhizobium etli CFN 42) (protein)
chain: MTPSEDFVVTDRGGIVENSHRVHAAVVDAKGRLLYALGNPTRMTLARSAAKPAQALAILETEGVAGYGFDDADIALMCASHSSEDRHIARTRAMLSKIKAEEADLRCGGHPSLSEMVNRSWIKQDFIPTAVCSNCSGKHVGMLAGARAIGAGTDGYHLPDHPMQGRVKRTVAELCDLDAGDVEWGTDGCNLPTPAFPLDRLGRIYAKLASAADGSDAGEGQSTRCAALAHIFRAMARHPEMVAGEGRYCTMLMRAFDGALVGKLGADASYAIGVRASDATRQLGTDGALGISVKIEDGNLEMLYAVVTELLERLGIGSPDVRSQLASFHHPQRVNTMGVTTGGVSFPFKLRGSKSNVDDPRLAAVAR
notes: gene in pET151D-TOPO, 6xHis-tagged, expressed in E. coli BL21 Gold (DE3); homodimer, Zn in active site
Turning to B4, in “Nessler ammonia assay [5]”, the Km stood at 24.81 ± 3.22 mM, the kcat stood at 28.5 ± 1.6 s⁻¹ and the kcat/Km turned out to be 1150 ± 210 M⁻¹ s⁻¹.
